Experimental data published in patent publication US7166733B2, “O,O'-Amidomalonate and N,O-Amidomalonate platinum complexes” (priority 2000, dated 2007).

What was measured:
[1] = Dependence on pH of the isomer ratio of O,O′—Pt to N,O—Pt chelate (195Pt NMR of timed aliquots); format: physicochemical
Experimental: The percent of O,O′- and N,O-chelate in timed aliquots of reactions mixtures were determined by removing enough of the reaction mixture (4–15 mL depending on concentration) to give greater than 100 mg of Pt-chelate if only ^195Pt NMR spectroscopy was to be done or about 200 mg if % Pt, and % H2O were also to be determined. The aliquots were purified by ultrafiltration using a Centricon Plus-20 centrifugal filter with a 5 kDa Biomax membrane from Millipore. The charged device was spun at the recommended RCF until less than 1 mL remained. The filtrate was discarded, the retentate was diluted with 15–18 mL water and the sample was centrifuged. This was repeated once more, and the retentate was lyophilized to give the sample for analysis.
^195Pt NMR spectra were obtained from a filtered 0.70 mL solution in 93/7 H2O/D2O in a 5 mm tube. Enough sample (80–120 mg) was used to give a solution that was >50 mM in platinum. The probe was tuned for each sample. A pulse width of 90 degrees, an acquisition time of 10 msec, a spectral window of 100 kHz and no delay was used. The transmitter was tuned to approximately midway between the O,O′—Pt and N,O—Pt chelates shifts (−1896 ppm for cis-diammine Pt and at −2450 for DACH—Pt). Between 50,000 and 1 million transients were typically required to obtain a sufficient (>35:1) s/n ratio for the cis-diammine-Pt and DACH=Pt species, respectively. The resulting FID was increasingly left-shifted until a flat baseline was obtained, a 100 Hz line broadening was applied, and a Fourier fill of 2048 was applied before processing. Integral regions were set and the spectrum's baseline was subjected to a spline fit using VNMR software v6.1. The sample was referenced externally to a 100 mM sample of K2PtCl4 in 95/5H2O/D2O and 100 mM HCl at −1624 ppm. This was also used to determine the 90 degree pulse width and T1.
Four 50 mL Centrifuge tubes were each charged with 1.00 g of p(HPMA)-GFLG-Ama=Pt(NH3)2 (either 100% N,O-chelate) or a 92% O,O-chelate, 8% N,O-chelate mixture. These materials were dissolved in 27 mL Milli-Q water (approx a 4 wt % solution) and adjusted to the pH ranges desired using 1 M NaOH or 5% HClO4 as appropriate. The samples were then heated, with stirring, in a 38° C. water bath and maintained within their specified pH ranges. Timed aliquots were taken and frozen until a suitable time at which point the solutions were concentrated by centrifugal ultrafiltration (one spin down at 4800 rpm, 30° C.) and then transferred to an NMR tube. A small amount of D2O was added to each tube and the ^195Pt NMR spectra were recorded.

[2] = Platinum release from PBS; format: physicochemical; conditions: 37° C.
Experimental: The percent of small platinum species released over time was measured by dissolving about 30 mg of the polymer-platinum conjugate in 15 mL of phosphate buffered saline (10 mM phosphate, 123 mM Cl^−) and incubating the solution at 37° C. in a water bath. At indicated times, 2.0 mL aliquots were transferred to a centrifugal filter with a 3 kDa nominal molecular weight cutoff (Centricon YM-3 from Millipore) and spun until >1.5 mL of filtrate had accumulated. The timed filtrates and the original solution were analyzed for platinum by ICP-OES. The percent of small Pt species released was determined using the formula: ((ppm Pt in filtrate)/(ppm Pt in stock solution))×100.

[3] = pH 5.0–5.5, 38° C., 100 mM ClO4^−, 1 h
[4] = pH 5.0–5.5, 38° C., 100 mM ClO4^−, 5 h
[5] = pH 5.0–5.5, 38° C., 100 mM ClO4^−, 8 h
[6] = pH 5.0–5.5, 38° C., 100 mM ClO4^−, 22 h
[7] = pH 5.0–5.5, 38° C., 100 mM Cl^−, 1 h
[8] = pH 5.0–5.5, 38° C., 100 mM Cl^−, 5 h
[9] = pH 5.0–5.5, 38° C., 100 mM Cl^−, 8 h
[10] = pH 5.0–5.5, 38° C., 100 mM Cl^−, 22 h

## poly(HPMA)-GFLG-Ama=Pt(NH3)2, N,O—Pt chelate [Example 4]
[1]; pH 3.0–3.5, 38° C., 1 h
  N,O— chelate: 2%
  O,O— chelate: 98%
[1]; pH 3.0–3.5, 38° C., 5 h
  N,O— chelate: 0%
  O,O— chelate: 100%
[1]; pH 3.0–3.5, 38° C., 20 h
  N,O— chelate: 0%
  O,O— chelate: 100%
[1]; pH 4.0–4.5, 38° C., 1 h
  N,O— chelate: 55%
  O,O— chelate: 45%
[1]; pH 4.0–4.5, 38° C., 5 h
  N,O— chelate: 44%
  O,O— chelate: 56%
[1]; pH 4.0–4.5, 38° C., 20 h
  N,O— chelate: 32%
  O,O— chelate: 68%
[1]; [3]
  N,O— chelate: 90%
  O,O— chelate: 10%
[1]; [4]
  N,O— chelate: 88%
  O,O— chelate: 12%
[1]; [5]
  N,O— chelate: 77%
  O,O— chelate: 23%
[1]; [6]
  N,O— chelate: 75%
  O,O— chelate: 25%
[1]; [7]
  N,O— chelate: 91%
  O,O— chelate: 9%
[1]; [8]
  N,O— chelate: 92%
  O,O— chelate: 8%
[1]; [9]
  N,O— chelate: 89%
  O,O— chelate: 11%
[1]; [10]
  N,O— chelate: 87%
  O,O— chelate: 13%
[1]; pH 5.0–5.5, 38° C., 1 h
  N,O— chelate: 94%
  O,O— chelate: 6%
[1]; pH 5.0–5.5, 38° C., 5 h
  N,O— chelate: 85%
  O,O— chelate: 15%
[1]; pH 5.0–5.5, 38° C., 20 h
  N,O— chelate: 81%
  O,O— chelate: 19%
[1]; pH 6.0–6.5, 38° C., 1 h
  N,O— chelate: 100%
  O,O— chelate: 0%
[1]; pH 6.0–6.5, 38° C., 5 h
  N,O— chelate: 100%
  O,O— chelate: 0%
[1]; pH 6.0–6.5, 38° C., 20 h
  N,O— chelate: 100%
  O,O— chelate: 0%
[2]; 3 hours
  Pt release in PBS: 0.6%
[2]; 24 hours
  Pt release in PBS: 2.0%
